Target: cis GFP: loop:s11 (light-activated truncated GFP with the 11th β-strand removed, chromophore in the cis configuration)
Assay: absorbance spectroscopy

s11, synthetic peptide corresponding to strand 11 of GFP
Kd: < 1 pM

Reference: paper PMC3068246
